Values quoted from earlier work, collected in publication PMC4918944.

Biological target: SecY (Bacillus subtilis) (UniProt P16336)
Chain of UniProt P16336 (P16336 whole entry): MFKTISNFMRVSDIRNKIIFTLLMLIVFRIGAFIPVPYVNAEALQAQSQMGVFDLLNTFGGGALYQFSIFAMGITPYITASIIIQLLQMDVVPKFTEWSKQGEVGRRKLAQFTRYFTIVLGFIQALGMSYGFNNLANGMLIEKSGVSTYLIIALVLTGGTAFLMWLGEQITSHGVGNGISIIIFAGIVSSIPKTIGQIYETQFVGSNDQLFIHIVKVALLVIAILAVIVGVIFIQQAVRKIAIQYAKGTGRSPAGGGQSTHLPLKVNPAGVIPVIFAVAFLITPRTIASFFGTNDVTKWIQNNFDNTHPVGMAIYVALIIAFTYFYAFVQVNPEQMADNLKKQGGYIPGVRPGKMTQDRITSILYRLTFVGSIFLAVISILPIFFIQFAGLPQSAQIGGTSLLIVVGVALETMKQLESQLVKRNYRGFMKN

SecA (from UniProt P28366)
Kd: 4 nM
